The values that follow come from patent US20240158494A1 (Biogen, published 2024).

In test [1] the target is T1, cynomolgus monkey transferrin receptor 1 (TfR1), full length, expressed on cells (cynomolgus monkey, UniProt Q5RDH6 1-760 (Pongo abelii entry)).
T1 construct: also called cyno TfR1; cyTfR
Kind of test: FACS on Ba/F3 cells, purified Fab.

The target of test [2] is T2, human transferrin receptor 1 (TfR1), full length, expressed on cells (human, UniProt P02786 1-760).
T2 construct: also called human TfR1; huTfR
The test can be described thus: FACS on Ba/F3 cells, purified Fab.

Test [3] addresses T1, cynomolgus monkey transferrin receptor …. The test can be described thus: FACS on Ba/F3 cells, Fab supernatant.
The target of test [4] is T2, human transferrin receptor 1 (TfR1), …. The test can be described thus: FACS on Ba/F3 cells, Fab supernatant.
Test [5] deals with T3, recombinant cynomolgus monkey TfR1 extracellular domain, His-tagged (cynomolgus monkey, UniProt Q5RDH6 87-760 (Pongo abelii entry)).
T3 construct: also called Cyno TfR1 ECD; cyno TfR1 ECD-His
Kind of test: SPR, TfR1 ECD-His captured, Fab injected, 1:1 fit. Background: In SPR one partner is held on a chip, and binding of the other changes the refractive index at the surface.

The target in test [6] is T4, recombinant human TfR1 extracellular domain, His-tagged (human, UniProt P02786 89-760).
T4 construct: also called Human TfR1 ECD; human TfR1 ECD-His
Kind of test: SPR, TfR1 ECD-His captured, Fab injected, 1:1 fit.

Test [7] concerns the target T1, cynomolgus monkey transferrin receptor …. Kind of test: FACS on Ba/F3 cells, Fab supernatant. The source holds these as a separate data set.
Test [8] has as its target T2, human transferrin receptor 1 (TfR1), …. The test can be described thus: FACS on Ba/F3 cells, Fab supernatant. The source holds these as a separate data set.
For test [9], the target named is T1, cynomolgus monkey transferrin receptor …. The test can be described thus: FACS on Ba/F3 cells, Fab supernatant. This is another data set of the same source.
The target of test [10] is T2, human transferrin receptor 1 (TfR1), …. The test can be described thus: FACS on Ba/F3 cells, Fab supernatant. The source holds these as a separate data set.
The target in test [11] is T1, cynomolgus monkey transferrin receptor …. The test can be described thus: FACS on Ba/F3 cells, purified Fab. This is another data set of the same source.
For test [12], the target named is T2, human transferrin receptor 1 (TfR1), …. The test can be described thus: FACS on Ba/F3 cells, purified Fab. The source holds these as a separate data set.
Test [13] concerns the target T1, cynomolgus monkey transferrin receptor …. Kind of test: FACS on Ba/F3 cells, Fab supernatant. The source holds these as a separate data set.
The target of test [14] is T2, human transferrin receptor 1 (TfR1), …. The test can be described thus: FACS on Ba/F3 cells, Fab supernatant. This is another data set of the same source.

B1: TfR1 ANTIBODY-A HC-H4C hIgG1 Fab′(1C)/LC-L1 hKappa (Fab, V domains shown)
VH: QSLVESGGGLVQPGGSLRLSCKASGIDFSSSGYMCWVRQAPGKGLEWVGCIYTYSSNTYYASWAKGRFTISKTSSTTVYLQMNSLKTEDTAVYYCARGTYGYTGYTYTMGYFSLWGPGTLVTVSS
VL: DIQMTQSPSTLSASVGDRVTITCQASQNINSYLAWYQQKPGKAPKLLIYRASTLASGVPSRFSGSGSGTEFTLTISSLQPDDFATYYCQSYYYSGSSNYNAFGGGTKVEIKR
notes: also called ANTIBODY-A H4C/L1
A word on the EC50: it is the midpoint of the concentration-response curve. A word on the Kd: it is the constant that tells how readily two partners part at equilibrium. As usually defined, the koff is the first-order rate constant of dissociation. In general, kon refers to a measure of how fast the partners come together. As to B1, the EC50 in test [1] was 2.4 nM; in test [2], 1.8 nM; in test [3], 1.8 nM; in test [4], 2.2 nM. Also, the results for the Kd in test [5] and in [6] were 2.6 nM and 0.91 nM, respectively. Besides, the koff in test [5] stood at 0.0114 s⁻¹; in test [6] it was 0.000894 s⁻¹. Further, the kon in [5] was 4.4e+06 M⁻¹ s⁻¹; in [6], 983000 M⁻¹ s⁻¹.

B2: TfR1 ANTIBODY-A HC-H4C hIgG1 Fab′(1C)/LC-L0 hKappa (Fab, V domains shown)
VH: QSLVESGGGLVQPGGSLRLSCKASGIDFSSSGYMCWVRQAPGKGLEWVGCIYTYSSNTYYASWAKGRFTISKTSSTTVYLQMNSLKTEDTAVYYCARGTYGYTGYTYTMGYFSLWGPGTLVTVSS
VL: DIQMTQSPSTLSASVGDRVTITCQASQNINSYLAWYQQKPGKAPKLLIYRASSLESGVPSRFSGSGSGTEFTLTISSLQPDDFATYYCQSYYYSGSSNYNAFGGGTKVEIKR
notes: also called ANTIBODY-A H4C/L0
B2: the EC50 in test [1] worked out at 2 nM; in test [2], 1.4 nM; in [3] it was 1.8 nM; in test [4], 1.4 nM. Also, the Kd in [5] turned out to be 3.3 nM; in test [6], 0.99 nM. For the same molecule, the koff in test [5] amounted to 0.00583 s⁻¹; in [6], 0.000878 s⁻¹. Also, the values for the kon in test [5] and in test [6] were 1.75e+06 M⁻¹ s⁻¹ and 887000 M⁻¹ s⁻¹, respectively.

B3: TfR1 ANTIBODY-A HC-H3C hIgG1 Fab′(1C)/LC-L0 hKappa (Fab, V domains shown)
VH: QSLVESGGGLVQPGGSLRLSCKASGIDFSSSGYMCWVRQAPGKGLEWVGCIYTYSSNTYYASWAKGRFTISKDSKNSVYLQMNSLKTEDTAVYYCARGTYGYTGYTYTMGYFSLWGPGTLVTVSS
VL: DIQMTQSPSTLSASVGDRVTITCQASQNINSYLAWYQQKPGKAPKLLIYRASSLESGVPSRFSGSGSGTEFTLTISSLQPDDFATYYCQSYYYSGSSNYNAFGGGTKVEIKR
notes: also called ANTIBODY-A H3C/L0; TfRANTIBODY-A HC-H3C hIgG1Fab′(1C)/LC-L0 hKappa
As to B3, the EC50 in test [7] came to 1.5 nM; in test [8], 1.1 nM; in test [1], 5 nM; in test [2] it was 1.6 nM; in test [3] it was 2.7 nM; in test [4] it was 2.5 nM. Moreover, the results for the Kd in test [5] and in test [6] were 2.5 nM and 1.4 nM, respectively. For the same molecule, the koff in [5] turned out to be 0.0103 s⁻¹; in test [6] it was 0.0012 s⁻¹. In addition, the results for the kon in test [5] and in test [6] were 4.1e+06 M⁻¹ s⁻¹ and 835000 M⁻¹ s⁻¹, respectively.

B4: TfR1 ANTIBODY-A HC-H2C hIgG1 Fab′(1C)/LC-L1 hKappa (Fab, V domains shown)
VH: QSLVESGGGLVQPGGSLRLSCAASGIDFSSSGYMCWVRQAPGKGLEWVGCIYTYSSNTYYAASVKGRFTISKTSSTTVYLQMNSLKTEDTAVYYCARGTYGYTGYTYTMGYFSLWGQGTLVTVSS
VL: DIQMTQSPSTLSASVGDRVTITCQASQNINSYLAWYQQKPGKAPKLLIYRASTLASGVPSRFSGSGSGTEFTLTISSLQPDDFATYYCQSYYYSGSSNYNAFGGGTKVEIKR
notes: also called ANTIBODY-A H2C/L1
Consider B4, for which the EC50 in test [1] worked out at 3.3 nM; in [2] it was 1.3 nM; in test [3] it was 3.3 nM; in [4], 2.6 nM. The Kd in test [5] was 3 nM; in test [6] it was 1.2 nM. Besides, the values for the koff in [5] and in test [6] were 0.0195 s⁻¹ and 0.000947 s⁻¹, respectively. Moreover, the kon in test [5] was 6.56e+06 M⁻¹ s⁻¹; in [6], 773000 M⁻¹ s⁻¹.

B5: TfR1 ANTIBODY-A HC-H3C hIgG1 Fab′(1C)/LC-L1 hKappa (Fab, V domains shown)
VH: QSLVESGGGLVQPGGSLRLSCKASGIDFSSSGYMCWVRQAPGKGLEWVGCIYTYSSNTYYASWAKGRFTISKDSKNSVYLQMNSLKTEDTAVYYCARGTYGYTGYTYTMGYFSLWGPGTLVTVSS
VL: DIQMTQSPSTLSASVGDRVTITCQASQNINSYLAWYQQKPGKAPKLLIYRASTLASGVPSRFSGSGSGTEFTLTISSLQPDDFATYYCQSYYYSGSSNYNAFGGGTKVEIKR
notes: also called ANTIBODY-A H3C/L1
With B5, the EC50 came out at 5.5 nM in test [1], 1.5 nM in test [2], 4.5 nM in test [3] and 2.1 nM in [4]. The results for the Kd in test [5] and in [6] were 4.1 nM and 1.2 nM, respectively. Also, the koff in test [5] was found to be 0.0106 s⁻¹; in test [6], 0.00126 s⁻¹. The kon in test [5] stood at 2.58e+06 M⁻¹ s⁻¹; in test [6] it was 1.02e+06 M⁻¹ s⁻¹.

B6: TfR1 ANTIBODY-B HC-H4C hIgG1 Fab′(1C)/LC-L2 hKappa (Fab, V domains shown)
VH: QSLVESGGGVVQPGRSLRLSCKASGFSFSNSYWICWVRQAPGKGLEWVGCINTDADSTNYASWARGRFTISKTSSTTVYLQMNSLRAEDTAVYYCARQNNVFDPGYNLWGPGTLVTVSS
VL: ELVLTQSPSTLSASVGDRVTITCRASQNIGSNLAWYQQKPGKAPKLLIYDASKLESGVPSRFSGSGSGTEFTLTISSLQPDDFATYYCQCTVRGGAYGNAFGGGTKVEIKR
notes: also called ANTIBODY-B H4C/L2; exemplary construct (v)
For the molecule B6, the concentration giving a half-maximal response (EC50) in [9] amounted to 1.9 nM; in test [10] it was 5.4 nM; in test [11] it was 2 nM; in test [12], 4.8 nM; in [13], 2.9 nM; in test [14], 4.7 nM. Also, the dissociation constant (Kd) in test [5] is 0.7 nM; in test [6], 3.4 nM. In addition, the koff in test [5] turned out to be 0.000279 s⁻¹; in test [6] it was 0.000767 s⁻¹. Further, the kon amounted to 398000 M⁻¹ s⁻¹ in [5] and 223000 M⁻¹ s⁻¹ in test [6].

B7: TfR1 ANTIBODY-B HC-H3C hIgG1 Fab′(1C)/LC-L2 hKappa (Fab, V domains shown)
VH: QSLVESGGGVVQPGRSLRLSCAASGFSFSNSYWICWVRQAPGKGLEWVGCINTDADSTNYASWARGRFTISKDNSKNTLYLQMNSLRAEDTAVYYCARQNNVFDPGYNLWGQGTLVTVSS
VL: ELVLTQSPSTLSASVGDRVTITCRASQNIGSNLAWYQQKPGKAPKLLIYDASKLESGVPSRFSGSGSGTEFTLTISSLQPDDFATYYCQCTVRGGAYGNAFGGGTKVEIKR
notes: also called ANTIBODY-B H3C/L2; TfRANTIBODY-B HC-H3C/LC-L2 hIgG1Fab′(1C)
Consider B7, for which the EC50 in [9] was 4 nM; in [10], 7 nM; in test [11], 1.9 nM; in test [12], 5.5 nM; in test [13], 2.6 nM; in [14], 6.8 nM. The Kd came out at 1.7 nM in test [5] and 7.4 nM in test [6]. Further, the figures for the koff in test [5] and in [6] were 0.000608 s⁻¹ and 0.00147 s⁻¹, respectively. In addition, the results for the kon in [5] and in test [6] were 348000 M⁻¹ s⁻¹ and 200000 M⁻¹ s⁻¹, respectively.

B8: TfR1 ANTIBODY-B HC-H2C hIgG1 Fab′(1C)/LC-L2 hKappa (Fab, V domains shown)
VH: QSLVESGGGVVQPGRSLRLSCKASGFSFSNSYWICWVRQAPGKGLEWVGCINTDADSTNYADSVKGRFTISKDSSTTVYLQMNSLRAEDTAVYYCARQNNVFDPGYNLWGQGTLVTVSS
VL: ELVLTQSPSTLSASVGDRVTITCRASQNIGSNLAWYQQKPGKAPKLLIYDASKLESGVPSRFSGSGSGTEFTLTISSLQPDDFATYYCQCTVRGGAYGNAFGGGTKVEIKR
notes: also called ANTIBODY-B H2C/L2
As to B8, the EC50 is 2.6 nM in [11], 6.5 nM in [12], 2.2 nM in test [13] and 3.3 nM in test [14]. For the same molecule, the Kd was found to be 1.1 nM in test [5] and 5.8 nM in [6]. The off-rate (koff) stood at 0.000472 s⁻¹ in test [5] and 0.000999 s⁻¹ in test [6]. Moreover, the values for the kon in test [5] and in [6] were 445000 M⁻¹ s⁻¹ and 170000 M⁻¹ s⁻¹, respectively.

B9: TfR1 ANTIBODY-B HC-H4 hIgG1 Fab′(1C)/LC-L2 hKappa (Fab, V domains shown)
VH: QSLVESGGGVVQPGRSLRLSCKASGFSFSNSYWIAWVRQAPGKGLEWVAAINTDADSTNYASWARGRFTISKTSSTTVYLQMNSLRAEDTAVYYCARQNNVFDPGYNLWGPGTLVTVSS
VL: ELVLTQSPSTLSASVGDRVTITCRASQNIGSNLAWYQQKPGKAPKLLIYDASKLESGVPSRFSGSGSGTEFTLTISSLQPDDFATYYCQCTVRGGAYGNAFGGGTKVEIKR
notes: also called ANTIBODY-B H4/L2
For the molecule B9, the EC50 was found to be 3.4 nM in test [11], 9.8 nM in test [12], 4.6 nM in [13] and 2.3 nM in test [14]. Further, the Kd worked out at 2.2 nM in test [5] and 11.6 nM in [6]. In addition, the koff in test [5] came out at 0.000508 s⁻¹; in test [6], 0.00155 s⁻¹. Further, the kon in test [5] was 228000 M⁻¹ s⁻¹; in [6], 134000 M⁻¹ s⁻¹.
